Assay [1] deals with DDB1ΔB-DCAF15biotin (human) (UniProt Q16531). Briefly: TR-FRET dimerization assay; the compound indisulam is titrated (EC50 is of the compound), both proteins at 200 nM, FIG. 7F. In general terms: In TR-FRET formats the signal depends on donor and acceptor labels being close together.
Assay [2] addresses DDB1ΔB-DCAF15biotin-DDA1 (human) (UniProt Q16531). Briefly: TR-FRET, BodipyFL-RBM39RRM2 titrated to DDB1ΔB-DCAF15biotin-DDA1 in the presence of E7820 (50 µM), FIG. 3C; apparent KD.
Assay [3] deals with DDB1ΔB-DCAF15biotin (human) (UniProt Q16531). The experiment in a line: TR-FRET, BodipyFL-RBM39RRM2 titrated to DDB1ΔB-DCAF15biotin in the presence of E7820 (50 µM), FIG. 3C; apparent KD.
Assay [4] shares this target. The experiment in a line: TR-FRET, BodipyFL-RBM39RRM2 titrated to DDB1ΔB-DCAF15biotin in the presence of indisulam at 50 µM; apparent KD.
Assay [5] has as its target DDB1ΔB-DCAF15biotin-DDA1 (human) (UniProt Q16531). Briefly: TR-FRET dimerization assay; the compound E7820 is titrated (EC50 is of the compound) to DDB1ΔB-DCAF15biotin-DDA1 and BodipyFL-RBM39RRM2, FIG. 3D.
For assay [6], the target named is DDB1ΔB-DCAF15biotin (human) (UniProt Q16531). The experiment in a line: TR-FRET dimerization assay; the compound E7820 is titrated (EC50 is of the compound), both proteins at 200 nM, FIG. 7F.
The target in assay [7] is DDB1ΔB-DCAF15biotin-DDA1 (human) (UniProt Q16531). Briefly: TR-FRET with E7820; DDB1-DCAF15-DDA1 against DDB1-DCAF15.
The target in assay [8] is DDB1ΔB-DCAF15biotin (human) (UniProt Q16531). The experiment in a line: TR-FRET, BodipyFL-RBM39RRM2 titrated to DDB1ΔB-DCAF15biotin in the presence of tasisulam at 50 µM; apparent KD.
For assay [9] the target is unchanged. Briefly: TR-FRET, BodipyFL-RBM39RRM2 titrated to DDB1ΔB-DCAF15biotin in the presence of E7820 at 50 µM; apparent KD.
For assay [10] the target is unchanged. Briefly: TR-FRET dimerization assay; the compound tasisulam is titrated (EC50 is of the compound), both proteins at 200 nM, FIG. 7F.
The target is the same in assay [11]. Briefly: TR-FRET dimerization assay; the compound E7820 is titrated (EC50 is of the compound) to DDB1ΔB-DCAF15 in the presence of BodipyFL-RBM23RRM2-WT, FIG. 5E.

Our source for the EC50, Kd and fold strengthening of apparent affinity against the complex without DDA1 values is patent US20220402981A1.

Chain of BodipyFL-RBM39RRM2 (Q14498 245-332): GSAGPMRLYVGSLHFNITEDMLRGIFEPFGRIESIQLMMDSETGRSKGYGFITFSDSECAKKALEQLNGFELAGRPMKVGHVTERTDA

On to “BodipyFL-RBM39RRM2 (from UniProt Q14498 245-332)”, for which the EC50 was 3.2 µM in assay [1], 0.33 µM in assay [5], 0.74 µM in assay [6] and more than 10 µM in [10]. Besides, the Kd turned out to be 0.62 µM in assay [2]; 1.9 µM in assay [3]; 2.1 µM in assay [4]; 3.5 µM in assay [8]; 2 µM in assay [9]. In assay [7], the fold strengthening of apparent affinity against the complex without DDA1 stood at 3 fold.

In the case of “BodipyFL-RBM23RRM2-WT (from UniProt Q86U06 263-341)”, the concentration for a half-maximal effect (EC50) in assay [11] is 1 µM.

What is called EC50 is the concentration at which the effect is half-maximal.
